Measured values: patent US20170129940A1 (INSTITUTE FOR RESEARCH IN BIOMEDICINE, published 2017)

T1: hCMV UL128 (expressed in HEK293T cells) (human cytomegalovirus, UniProt P16837 28-171)
T1 sequence: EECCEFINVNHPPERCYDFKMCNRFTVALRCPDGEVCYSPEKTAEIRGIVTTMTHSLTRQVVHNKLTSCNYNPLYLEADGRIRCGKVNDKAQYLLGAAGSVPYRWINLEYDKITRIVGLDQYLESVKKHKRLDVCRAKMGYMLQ


What was measured:
[1] = target: T2, hCMV gB (expressed in HEK293T cells) (human cytomegalovirus, UniProt P06473 32-906); experiment: cell-based or functional assay
T2 sequence (P06473 32-906 limits assumed): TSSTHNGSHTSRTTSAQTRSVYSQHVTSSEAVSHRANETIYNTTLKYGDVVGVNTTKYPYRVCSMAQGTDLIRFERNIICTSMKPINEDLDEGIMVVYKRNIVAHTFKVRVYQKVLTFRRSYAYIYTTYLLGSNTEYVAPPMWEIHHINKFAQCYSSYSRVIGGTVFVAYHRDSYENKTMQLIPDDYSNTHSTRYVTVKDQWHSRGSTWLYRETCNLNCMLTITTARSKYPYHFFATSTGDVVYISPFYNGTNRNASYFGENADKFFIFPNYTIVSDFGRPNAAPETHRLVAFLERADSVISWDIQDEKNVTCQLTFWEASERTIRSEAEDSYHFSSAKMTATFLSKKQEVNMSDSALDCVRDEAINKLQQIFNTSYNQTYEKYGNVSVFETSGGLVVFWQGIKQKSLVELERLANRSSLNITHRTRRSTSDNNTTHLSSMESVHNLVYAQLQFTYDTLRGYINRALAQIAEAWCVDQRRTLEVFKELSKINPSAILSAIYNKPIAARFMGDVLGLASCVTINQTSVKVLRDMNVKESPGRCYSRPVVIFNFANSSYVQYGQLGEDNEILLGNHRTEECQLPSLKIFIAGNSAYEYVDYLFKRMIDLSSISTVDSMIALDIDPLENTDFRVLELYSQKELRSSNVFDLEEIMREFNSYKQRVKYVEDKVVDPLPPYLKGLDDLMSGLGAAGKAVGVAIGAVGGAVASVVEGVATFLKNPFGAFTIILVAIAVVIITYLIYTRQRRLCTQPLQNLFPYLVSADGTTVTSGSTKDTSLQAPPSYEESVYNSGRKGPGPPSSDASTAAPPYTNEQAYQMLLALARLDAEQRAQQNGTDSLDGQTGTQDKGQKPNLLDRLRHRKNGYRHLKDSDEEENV

[2] = target: T2, hCMV gB (expressed in HEK293T cells); experiment: cell-based or functional assay; remark: listed apart in the source
[3] = target: T2, hCMV gB (expressed in HEK293T cells); experiment: cell-based or functional assay; remark: listed apart in the source
[4] = target: T2, hCMV gB (expressed in HEK293T cells); experiment: competitor: 4H9-biotin; cell staining
[5] = target: T2, hCMV gB (expressed in HEK293T cells); experiment: competitor: 5F1-biotin; cell staining
[6] = target: T2, hCMV gB (expressed in HEK293T cells); experiment: competitor: 6B4-biotin; cell staining
[7] = target: T2, hCMV gB (expressed in HEK293T cells); experiment: competitor: 7H3-biotin; cell staining
[8] = target: T2, hCMV gB (expressed in HEK293T cells); experiment: competitor: 10C6-biotin; cell staining
[9] = target: T2, hCMV gB (expressed in HEK293T cells); experiment: competitor: 2B11-biotin; cell staining
[10] = target: T1, hCMV UL128 (expressed in HEK293T cells); experiment: cell-based or functional assay
[11] = target: T1, hCMV UL128 (expressed in HEK293T cells); experiment: cell-based or functional assay; remark: listed apart in the source
[12] = target: T3, hCMV gH + gL + UL128 + UL130 (co-expressed in HEK293T cells) (human cytomegalovirus, UniProt P12824 24-743; P16832 31-278; P16837 28-171; P16772 1-214); experiment: cell-based or functional assay
[13] = target: T3, hCMV gH + gL + UL128 + UL130 …; experiment: cell-based or functional assay; remark: listed apart in the source

| Binder | 50% Neutralization ARPE [1] [µg/mL] | 50% Neutralization MRC-9 [1] [µg/mL] | 90% Neutralization ARPE [2] [µg/mL] | 90% Neutralization MRC-9 [2] [µg/mL] | 50% Neutralization BM-MSC [3] [µg/mL] | 50% Neutralization Mo-DC [3] [µg/mL] | Inhibition of binding (%) [4] [%] | Inhibition of binding (%) [5] [%] | Inhibition of binding (%) [6] [%] | Inhibition of binding (%) [7] [%] | Inhibition of binding (%) [8] [%] | Inhibition of binding (%) [9] [%] | 50% Neutralization ARPE [10] [µg/mL] | 50% Neutralization MRC-9 [10] [µg/mL] | 90% Neutralization ARPE [11] [µg/mL] | 90% Neutralization MRC-9 [11] [µg/mL] | 50% Neutralization ARPE [12] [µg/mL] | 50% Neutralization MRC-9 [12] [µg/mL] | 90% Neutralization ARPE [13] [µg/mL] | 90% Neutralization MRC-9 [13] [µg/mL] |
| --- | --- | --- | --- | --- | --- | --- | --- | --- | --- | --- | --- | --- | --- | --- | --- | --- | --- | --- | --- | --- |
| 7H3 (antibody, V domains shown, human IgG; also called 7H3-biotin) VH: QVQLVQSGAEVKNPGASVKVSCKASGYTFTDYYIHWVRQAPGQGLEWMGWFNPNSGGTNFVQNFQGRVTMTRDTSISTAYMELSRLRSDDTAMYYCAKDSAKTASAYYGLNFFYYGMDVWGQGTTVTVSS VL: QSVLSQPPSASGTPGQRVTISCSGSSSNIGKNYVYWYQQVPGTAPKLLMFKNNQRPSGVPDRFSGSKSGTSASLAISGLRSEDEADYYCSAWDGSLSRPLFGGGTKVTVL | > 2 | ≤ 2 | 0.6 | 3 | 2 | 0.06 | 0 | 0 | 0 | 100 | 0 | 0 | – | – | – | – | – | – | – | – |
| 5F1 (antibody, V domains shown, human IgG; also called 5F1-biotin) VH: AVQLVESGGGLAQPGRSLRLSCKVSGFTFSSYEMNWVRQAPGKGLEWIAYIDFTGSTIYYADSVKGRFTISRDTARNSLYLQMNKLRVEDTAVYYCVRDAGRWGTSWYYFDYWGQGTLVTVSS VL: QSVLTQPPSVSGAPGQRVTISCTGLSSNIGAGYDIHWYQQIPGKAPKLLIYGNNNRPSGVPDRFSGSKSGTSVSLAITGLQAEDEADYYCQSYDSSLNGWVFGGGTRLTVL | ≤ 2 | ≤ 2 | 0.1 | 0.5 | 0.3 | 0.05 | 100 | 100 | 0 | 0 | 100 | 100 | – | – | – | – | – | – | – | – |
| 10C6 (antibody, V domains shown, human IgG; also called 10C6-biotin) VH: AVQLVESGGGLAQPGRSLRLSCKVSGFSFSNFEMNWVRQAPGKGLEWIAYIDFTGSTIYYSDSVKGRFTISRDTARNSLYLQMNKLRVEDTAVYYCVRDAGRWGTSWYYFDYWGQGTLVTVSS VL: QSVLTQPPSVSGAPGQRVTISCTGLSSNIGAGYDIHWYQQIPGKAPKLLIYGNNNRPSGVPDRFSGSKSGTSVSLAITGLQAEDEADYYCQSYDSSLNGWVFGGGTRLTVL | ≤ 2 | ≤ 2 | 0.2 | 0.75 | 0.3 | 0.02 | 100 | 100 | 0 | 0 | 100 | 100 | – | – | – | – | – | – | – | – |
| 2B11 (antibody, V domains shown, human IgG; also called 2B11-biotin) VH: AVRLVESGGGLAQPGRSLRLSCQVSGFTFGSYEMNWVRQAPGKGLEWIAYIDFTGSTIYYADSVKGRFTISRNTARNSLYLQMNSLRVEDTAVYYCVRDAGRWGTSWYYFDYWGQGTRVTVSP VL: QSVLTQPPSVSGAPGQRVTISCTGISSNIGAGYDIHWYQQIPGKAPKLLVYGNNNRPSGVPDRFSGSKSGTSVSLAITGLQVEDEADYYCQSYDNSLNGWVFGGGTRLTVL | – | – | 0.2 | 0.75 | – | – | 100 | 100 | 0 | 0 | 100 | 100 | – | – | – | – | – | – | – | – |
| 15D8 (antibody, V domains shown) VH: EVQLVQSGAEVKKPGESLKISCQASGYSFTNYWIAWVRQMPGKGLEWMGIIYPGDSDIKYSPSFRGQVTISADKSISNAFLQWRSLRASDTAMYYCARHAIRGDGFDYWGQGTLVTVSS VL: SYELTQPPSVSVSPGQTATITCSGDKLGEKYACWYQQKPGQSPVLVMYQDTKRPSGIPERFSGSNSGNTATLTISGTRAMDEADYYCQAWDTNTVIFGGGTKLTVL | – | – | – | – | – | – | – | – | – | – | – | – | < 0.001 | > 2 | 0.008 | > 10 | – | – | – | – |
| 8I21 (antibody, V domains shown) VH: LVELVESGGGVVQPGRSLRLSCAASGFTFSSDGMHWVRQSPGRGLEWVAFISSDGSTPYYADSVKGRFTISRDNSKNTLYLQMNSLRAEDTAMYFCAKDWALFRWLRTFDHWGQGTLVTVSS VL: not shown | – | – | – | – | – | – | – | – | – | – | – | – | – | – | – | – | < 0.01 | > 2 | 0.03 | > 10 |
| 4H9 (antibody, V domains shown, human IgG; also called 4H9-biotin) VH: AVQLVESGGGLVRPGGSLRLSCAASGFTFSSHEMHWVRQAPGKGLEWLSYIDFTGSIIYYADSVRGRFTISRDNTKKSLFLQMNSLRDEDTALYYCARDGGRWGTSWYYFDYWGQGVLVTVSS VL: QSVLTQPPSVSGAPGQRVTITCTGSSSNFGAGYDGHWYQQLPGTAPKLLIYGSNRPSGVPDRFSGSKSGTSVSLAITGLQADDEADYYCQSYDSSLSAWVFGGGTKLTVL | ≤ 2 | ≤ 2 | 0.4 | 10 | – | – | 100 | 100 | 0 | 0 | 100 | 100 | – | – | – | – | – | – | – | – |
| 6B4 (antibody, V domains shown, human IgG; also called 6B4-biotin) VH: QVQLVESGGGVVQPGRSLRLSCAASGFRFNEFNMHWVRQAPGKGLEWVAVISIDGRHKYNADSVEGRFTISRDNSRNTLYLQMNSLRVEDTALYYCVTDGKAVDGFSGILEFWGQGTPVTVST VL: EIVLTQSPATLSLSPGERATLSCWASQSVGGYLAWYQQKPGQAPRLLIYDASIRATGIPARFSGSGSGTHFTLTINSLEPEDFAVYYCQQRNNWPPLTFGGGTKVEIK | ≤ 2 | ≤ 2 | 0.15 | 1 | 2 | 0.11 | 0 | 0 | 100 | 0 | 0 | 0 | – | – | – | – | – | – | – | – |
